Assay results reported in paper PMC9482650, “Quantitative fragmentomics allow affinity mapping of interactomes” (Nature Communications, 2022).

T1: DFNB31_3, Q9P202
T1 sequence (Q9P202 811-907, limits assumed, looked up): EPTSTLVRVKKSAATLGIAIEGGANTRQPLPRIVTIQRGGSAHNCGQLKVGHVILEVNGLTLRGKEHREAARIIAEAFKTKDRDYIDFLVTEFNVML

T2: GRIP1_5, Q9Y3R0
T2 sequence (Q9Y3R0 568-668, limits assumed, looked up): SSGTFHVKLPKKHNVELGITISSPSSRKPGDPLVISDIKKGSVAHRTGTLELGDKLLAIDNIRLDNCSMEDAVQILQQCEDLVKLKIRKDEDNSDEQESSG

T3: LNX2_2, Q8N448
T3 sequence (Q8N448 334-432, limits assumed, looked up): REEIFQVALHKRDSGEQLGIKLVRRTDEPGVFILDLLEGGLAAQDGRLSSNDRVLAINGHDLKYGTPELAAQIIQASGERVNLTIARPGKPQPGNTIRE

T4: MPP2, Q14168
T4 sequence (Q14168 180-250, limits assumed, looked up): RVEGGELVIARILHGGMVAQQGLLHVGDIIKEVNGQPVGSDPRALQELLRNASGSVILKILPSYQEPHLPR

T5: NHERF3_1, Q5T2W1
T5 sequence (Q5T2W1 4-100, limits assumed, looked up): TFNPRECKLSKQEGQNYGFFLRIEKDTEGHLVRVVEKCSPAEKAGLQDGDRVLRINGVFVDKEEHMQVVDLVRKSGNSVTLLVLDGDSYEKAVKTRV

T6: NHERF3_3, Q5T2W1
T6 sequence (Q5T2W1 238-333, limits assumed, looked up): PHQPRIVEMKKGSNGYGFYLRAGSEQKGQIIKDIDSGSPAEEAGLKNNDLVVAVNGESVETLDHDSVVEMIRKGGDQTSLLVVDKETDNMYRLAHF

T7: PCLO, Q9Y6V0
T7 sequence (Q9Y6V0 4491-4600, limits assumed, looked up): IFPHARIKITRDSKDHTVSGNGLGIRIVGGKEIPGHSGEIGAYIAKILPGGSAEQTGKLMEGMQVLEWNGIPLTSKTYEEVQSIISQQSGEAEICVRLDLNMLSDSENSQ

T8: SHANK1, Q9Y566
T8 sequence (Q9Y566 658-767, limits assumed, looked up): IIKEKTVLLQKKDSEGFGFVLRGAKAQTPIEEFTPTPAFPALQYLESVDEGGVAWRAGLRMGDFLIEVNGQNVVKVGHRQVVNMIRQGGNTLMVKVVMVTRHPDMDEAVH

T9: TIAM2, Q8IVF5
T9 sequence (Q8IVF5 885-986, limits assumed, looked up): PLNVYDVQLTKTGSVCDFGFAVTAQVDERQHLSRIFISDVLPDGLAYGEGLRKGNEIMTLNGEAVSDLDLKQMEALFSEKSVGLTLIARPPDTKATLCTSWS

T10: TJP3_3, O95049
T10 sequence (O95049 375-456, limits assumed, looked up): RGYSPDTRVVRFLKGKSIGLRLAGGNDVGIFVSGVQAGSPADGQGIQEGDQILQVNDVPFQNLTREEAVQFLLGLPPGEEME


Columns and labels:
Experiment in all cases: holdup assay
Set-up in all cases: key: below the threshold = too weak to quantify, mostly under pKd 3.1 to 4
Settings in all cases: plain residues with an end cap or a label only (N-terminal biotin on a linker: ado-ado)
DFNB31_3, Q9P202 = target: T1, DFNB31_3, Q9P202
DLG2_2, Q15700 = target: DLG2_2, Q15700
Chain of DLG2_2, Q15700 (Q15700 189-283): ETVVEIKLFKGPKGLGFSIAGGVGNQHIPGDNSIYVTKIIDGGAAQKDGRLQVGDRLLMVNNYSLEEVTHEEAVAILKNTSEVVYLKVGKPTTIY

DLG4_1, P78352 = target: DLG4_1, P78352
Chain of DLG4_1, P78352 (P78352 62-152): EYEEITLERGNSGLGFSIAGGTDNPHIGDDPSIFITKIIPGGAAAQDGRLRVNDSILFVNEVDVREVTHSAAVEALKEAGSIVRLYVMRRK

DLG4_2, P78352 = target: DLG4_2, P78352
Chain of DLG4_2, P78352 (P78352 155-259): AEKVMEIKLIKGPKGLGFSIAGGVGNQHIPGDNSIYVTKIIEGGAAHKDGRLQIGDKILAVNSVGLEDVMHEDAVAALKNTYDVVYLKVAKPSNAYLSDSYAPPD

DLG5_1, Q8TDM6 = target: DLG5_1, Q8TDM6
Chain of DLG5_1, Q8TDM6 (Q8TDM6 617-713): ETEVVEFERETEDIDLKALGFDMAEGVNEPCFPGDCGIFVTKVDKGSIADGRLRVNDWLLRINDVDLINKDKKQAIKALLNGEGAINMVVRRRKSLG

FRMPD2_3, Q68DX3 = target: FRMPD2_3, Q68DX3
Chain of FRMPD2_3, Q68DX3 (Q68DX3 1073-1166): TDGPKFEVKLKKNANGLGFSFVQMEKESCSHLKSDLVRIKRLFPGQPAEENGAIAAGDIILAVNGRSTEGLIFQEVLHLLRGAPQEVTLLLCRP

GORASP1, Q9BQQ3 = target: GORASP1, Q9BQQ3
Chain of GORASP1, Q9BQQ3 (Q9BQQ3 1-208): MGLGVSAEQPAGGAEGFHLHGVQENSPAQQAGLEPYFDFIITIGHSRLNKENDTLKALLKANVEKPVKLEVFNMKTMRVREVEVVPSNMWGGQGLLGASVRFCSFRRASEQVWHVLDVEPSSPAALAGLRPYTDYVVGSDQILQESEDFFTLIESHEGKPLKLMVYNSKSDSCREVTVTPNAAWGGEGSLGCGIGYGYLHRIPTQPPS

GRID2IP_1, A4D2P6 = target: GRID2IP_1, A4D2P6
Chain of GRID2IP_1, A4D2P6 (A4D2P6 1-87): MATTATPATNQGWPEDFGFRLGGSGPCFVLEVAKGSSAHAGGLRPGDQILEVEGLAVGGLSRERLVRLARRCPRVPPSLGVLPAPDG

GRIP1_5, Q9Y3R0 = target: T2, GRIP1_5, Q9Y3R0
IL16_1, Q14005 = target: IL16_1, Q14005
Chain of IL16_1, Q14005 (Q14005 210-306): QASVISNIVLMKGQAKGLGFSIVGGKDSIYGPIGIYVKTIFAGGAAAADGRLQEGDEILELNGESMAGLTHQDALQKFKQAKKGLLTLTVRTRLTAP

Inadl_6, Q8NI35 = target: Inadl_6, Q8NI35
Chain of Inadl_6, Q8NI35 (Q8NI35 1058-1167): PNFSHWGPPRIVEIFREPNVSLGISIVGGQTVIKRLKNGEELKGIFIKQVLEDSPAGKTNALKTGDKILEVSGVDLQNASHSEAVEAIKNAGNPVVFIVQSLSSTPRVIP

Inadl_8, Q8NI35 = target: Inadl_8, Q8NI35
Chain of Inadl_8, Q8NI35 (Q8NI35 1425-1530): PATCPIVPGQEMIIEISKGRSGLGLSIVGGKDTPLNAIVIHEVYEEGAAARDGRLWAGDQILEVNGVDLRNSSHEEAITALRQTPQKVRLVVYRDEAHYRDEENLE

LNX2_2, Q8N448 = target: T3, LNX2_2, Q8N448
MAGI2_2, Q86UL8 = target: MAGI2_2, Q86UL8
Chain of MAGI2_2, Q86UL8 (Q86UL8 410-522): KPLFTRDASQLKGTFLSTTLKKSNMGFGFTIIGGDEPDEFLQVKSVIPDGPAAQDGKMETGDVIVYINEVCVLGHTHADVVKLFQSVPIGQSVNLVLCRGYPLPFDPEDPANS

MAGI2_6, Q86UL8 = target: MAGI2_6, Q86UL8
Chain of MAGI2_6, Q86UL8 (Q86UL8 1141-1229): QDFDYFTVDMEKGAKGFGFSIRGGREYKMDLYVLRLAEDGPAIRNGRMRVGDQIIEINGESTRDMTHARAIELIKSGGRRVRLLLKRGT

MPP2, Q14168 = target: T4, MPP2, Q14168
NHERF3_1, Q5T2W1 = target: T5, NHERF3_1, Q5T2W1
NHERF3_3, Q5T2W1 = target: T6, NHERF3_3, Q5T2W1
NHERF4_1, Q86UT5-2 = target: NHERF4_1, Q86UT5-2
Chain of NHERF4_1, Q86UT5-2 (Q86UT5 other isoform, or with tags, fused parts or gaps): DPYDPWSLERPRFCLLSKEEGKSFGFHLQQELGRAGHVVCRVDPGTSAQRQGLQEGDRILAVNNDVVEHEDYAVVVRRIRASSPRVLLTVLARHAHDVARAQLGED

NOS1, P29475 = target: NOS1, P29475
Chain of NOS1, P29475 (P29475 9-101): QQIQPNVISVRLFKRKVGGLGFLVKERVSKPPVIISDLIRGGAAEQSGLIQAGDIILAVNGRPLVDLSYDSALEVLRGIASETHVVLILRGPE

PCLO, Q9Y6V0 = target: T7, PCLO, Q9Y6V0
PICK1, Q9NRD5 = target: PICK1, Q9NRD5
Chain of PICK1, Q9NRD5 (Q9NRD5 17-115): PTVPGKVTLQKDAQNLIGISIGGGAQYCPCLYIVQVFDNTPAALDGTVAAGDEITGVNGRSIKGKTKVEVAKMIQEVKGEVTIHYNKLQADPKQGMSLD

PTPN3, P26045 = target: PTPN3, P26045
Chain of PTPN3, P26045 (P26045 505-587): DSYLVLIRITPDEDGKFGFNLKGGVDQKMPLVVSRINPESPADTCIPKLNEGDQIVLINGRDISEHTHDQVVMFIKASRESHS

SHANK1, Q9Y566 = target: T8, SHANK1, Q9Y566
TIAM2, Q8IVF5 = target: T9, TIAM2, Q8IVF5
TJP1_3, Q07157 = target: TJP1_3, Q07157
Chain of TJP1_3, Q07157 (Q07157 416-512): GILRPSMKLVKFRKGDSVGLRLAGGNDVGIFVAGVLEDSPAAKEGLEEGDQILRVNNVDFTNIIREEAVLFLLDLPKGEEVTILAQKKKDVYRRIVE

TJP3_3, O95049 = target: T10, TJP3_3, O95049

Binder	pKd (DFNB31_3, Q9P202)	pKd (DLG2_2, Q15700)	pKd (DLG4_1, P78352)	pKd (DLG4_2, P78352)	pKd (DLG5_1, Q8TDM6)	pKd (FRMPD2_3, Q68DX3)	pKd (GORASP1, Q9BQQ3)	pKd (GRID2IP_1, A4D2P6)	pKd (GRIP1_5, Q9Y3R0)	pKd (IL16_1, Q14005)	pKd (Inadl_6, Q8NI35)	pKd (Inadl_8, Q8NI35)	pKd (LNX2_2, Q8N448)	pKd (MAGI2_2, Q86UL8)	pKd (MAGI2_6, Q86UL8)	pKd (MPP2, Q14168)	pKd (NHERF3_1, Q5T2W1)	pKd (NHERF3_3, Q5T2W1)	pKd (NHERF4_1, Q86UT5-2)	pKd (NOS1, P29475)	further results
VISSDDLTEL [CAPN6, Q9Y6Q1]	4	below the threshold	below the threshold	below the threshold	below the threshold	below the threshold	below the threshold	below the threshold	below the threshold	below the threshold	below the threshold	below the threshold	below the threshold	below the threshold	3.59	below the threshold	3.67	below the threshold	3.94	below the threshold	pKd (PCLO, Q9Y6V0): below the threshold; pKd (PICK1, Q9NRD5): below the threshold; pKd (PTPN3, P26045): 4.12; pKd (SHANK1, Q9Y566): 4.84; pKd (TIAM2, Q8IVF5): 3.96; pKd (TJP1_3, Q07157): below the threshold; pKd (TJP3_3, O95049): below the threshold
THHRKIHTRV [ZNF599, Q96NL3]	below the threshold	5.38	4.98	5.64	3.72	3.53	3.87	3.6	below the threshold	3.48	below the threshold	4.38	3.82	5.78	below the threshold	below the threshold	3.63	below the threshold	3.72	4.02	pKd (PCLO, Q9Y6V0): below the threshold; pKd (PICK1, Q9NRD5): below the threshold; pKd (PTPN3, P26045): below the threshold; pKd (SHANK1, Q9Y566): 4.01; pKd (TIAM2, Q8IVF5): 3.57; pKd (TJP1_3, Q07157): below the threshold; pKd (TJP3_3, O95049): below the threshold
TNSKQGETTV [FZD1, Q9UP38]	4.06	4.82	4.7	4.94	3.91	3.74	below the threshold	3.66	below the threshold	below the threshold	below the threshold	below the threshold	4.71	4.38	4.03	below the threshold	below the threshold	below the threshold	below the threshold	3.53	pKd (PCLO, Q9Y6V0): below the threshold; pKd (PICK1, Q9NRD5): 4.2; pKd (PTPN3, P26045): 4.79; pKd (SHANK1, Q9Y566): 3.57; pKd (TIAM2, Q8IVF5): below the threshold; pKd (TJP1_3, Q07157): 3.69; pKd (TJP3_3, O95049): below the threshold

The next lines start with results.

pKd (DFNB31_3, Q9P202)	pKd (DLG2_2, Q15700)	pKd (DLG4_1, P78352)	pKd (DLG4_2, P78352)	pKd (DLG5_1, Q8TDM6)	pKd (FRMPD2_3, Q68DX3)	pKd (GORASP1, Q9BQQ3)	pKd (GRID2IP_1, A4D2P6)	pKd (GRIP1_5, Q9Y3R0)	pKd (IL16_1, Q14005)	pKd (Inadl_6, Q8NI35)	pKd (Inadl_8, Q8NI35)	pKd (LNX2_2, Q8N448)	pKd (MAGI2_2, Q86UL8)	pKd (MAGI2_6, Q86UL8)	pKd (MPP2, Q14168)	pKd (NHERF3_1, Q5T2W1)	pKd (NHERF3_3, Q5T2W1)	pKd (NHERF4_1, Q86UT5-2)	pKd (NOS1, P29475)	Binder	further results
3.65	3.5	below the threshold	3.75	below the threshold	below the threshold	below the threshold	below the threshold	below the threshold	below the threshold	below the threshold	below the threshold	3.58	below the threshold	below the threshold	3.54	3.85	below the threshold	3.87	3.75	RGKNRRQSIF [CDK18, Q07002]	pKd (PCLO, Q9Y6V0): below the threshold; pKd (PICK1, Q9NRD5): 4.17; pKd (PTPN3, P26045): 3.77; pKd (SHANK1, Q9Y566): below the threshold; pKd (TIAM2, Q8IVF5): below the threshold; pKd (TJP1_3, Q07157): below the threshold; pKd (TJP3_3, O95049): below the threshold
below the threshold	below the threshold	below the threshold	below the threshold	below the threshold	below the threshold	below the threshold	below the threshold	below the threshold	3.94	3.48	below the threshold	below the threshold	below the threshold	below the threshold	below the threshold	5.58	3.85	3.84	below the threshold	AKADAQESRL [PLCB2, Q00722]	pKd (PCLO, Q9Y6V0): below the threshold; pKd (PICK1, Q9NRD5): below the threshold; pKd (PTPN3, P26045): 4.74; pKd (SHANK1, Q9Y566): 4.33; pKd (TIAM2, Q8IVF5): below the threshold; pKd (TJP1_3, Q07157): below the threshold; pKd (TJP3_3, O95049): below the threshold
below the threshold	below the threshold	3.62	3.56	below the threshold	below the threshold	3.75	below the threshold	below the threshold	3.57	below the threshold	4.6	below the threshold	5.31	below the threshold	below the threshold	below the threshold	3.63	below the threshold	4.17	TFSRRPKTRV [CD226, Q15762]	pKd (PCLO, Q9Y6V0): below the threshold; pKd (PICK1, Q9NRD5): below the threshold; pKd (PTPN3, P26045): below the threshold; pKd (SHANK1, Q9Y566): 4.06; pKd (TIAM2, Q8IVF5): below the threshold; pKd (TJP1_3, Q07157): below the threshold; pKd (TJP3_3, O95049): below the threshold
